From patent publication US20040109854A1 come the findings set out here.

This assay addresses TRAF6 dm (amino acids 1-274) fused to the GAL4 DNA binding domain (pGBT9-TRAF6 dm) (yeast; human) (UniProt P04386). Briefly: cell-based or functional assay.

For “recombinant TRAF6-inhibiting protein fused with the transcription activation domain of GAL4 (full length cDNA in pGAD424, expressed in yeast Y190) (from UniProt Q8TD23 1-568)”, the β-galactosidase activity titer (liquid β-galactosidase assay, yeast two-hybrid) is 21 unit.
